Results: article PMC3942289, “Characterization of Ten Heterotetrameric NDP-Dependent Acyl-CoA Synthetases of the Hyperthermophilic Archaeon Pyrococcus furiosus” (Archaea, 2014)

Tests used:
Assay type in all cases: biochemical, Pyrococcus furiosus
[1] = substrate: CC(=O)SCCNC(=O)CCNC(=O)[C@H](O)C(C)(C)COP(=O)(O)OP(=O)(O)OC[C@H]1O[C@@H](n2cnc3c(N)ncnc32)[C@H](O)[C@@H]1OP(=O)(O)O; assay: DTNB assay of released CoASH, 96-well; conditions: forward reaction, 2 mM ADP, 10 mM K2HPO4, 2 mM MgCl2, pH 7.0, 80°C
Text: DTNB assay of released CoASH, 96-well on ACS3-A

[2] = substrate: Nc1ncnc2c1ncn2[C@@H]1O[C@H](COP(=O)(O)OP(=O)(O)OP(=O)(O)O)[C@@H](O)[C@H]1O; assay: colorimetric phosphate release, 96-well; conditions: reverse reaction (acid + CoA), 20 mM acid substrate, 0.5 mM CoA, 2 mM MgCl2, pH 7.0, 80°C
[3] = substrate: Nc1nc2c(ncn2[C@@H]2O[C@H](COP(=O)(O)OP(=O)(O)OP(=O)(O)O)[C@@H](O)[C@H]2O)c(=O)[nH]1; assay: colorimetric phosphate release, 96-well; conditions: reverse reaction (acid + CoA), 20 mM acid substrate, 0.5 mM CoA, 2 mM MgCl2, pH 7.0, 80°C
[4] = substrate: CC(=O)SCCNC(=O)CCNC(=O)[C@H](O)C(C)(C)COP(=O)(O)OP(=O)(O)OC[C@H]1O[C@@H](n2cnc3c(N)ncnc32)[C@H](O)[C@@H]1OP(=O)(O)O; assay: DTNB assay of released CoASH, 96-well; conditions: forward reaction, 2 mM ADP, 10 mM K2HPO4, 2 mM MgCl2, pH 7.0, 80°C; remark: listed apart in the source
Text: DTNB assay of released CoASH, 96-well on ACS1-A

[5] = substrate: CC(C)CC(=O)SCCNC(=O)CCNC(=O)[C@H](O)C(C)(C)COP(=O)(O)OP(=O)(O)OC[C@H]1O[C@@H](n2cnc3c(N)ncnc32)[C@H](O)[C@@H]1OP(=O)(O)O; assay: DTNB assay of released CoASH, 96-well; conditions: forward reaction, 2 mM ADP, 10 mM K2HPO4, 2 mM MgCl2, pH 7.0, 80°C
Text: (§1) DTNB assay of released CoASH, 96-well on ACS2-A

[6] = substrate: CC(=O)SCCNC(=O)CCNC(=O)[C@H](O)C(C)(C)COP(=O)(O)OP(=O)(O)OC[C@H]1O[C@@H](n2cnc3c(N)ncnc32)[C@H](O)[C@@H]1OP(=O)(O)O; assay: DTNB assay of released CoASH, 96-well; conditions: forward reaction, 2 mM ADP, 10 mM K2HPO4, 2 mM MgCl2, pH 7.0, 80°C; remark: listed apart in the source
Text: as §1

[7] = substrate: CC(C)(COP(=O)(O)OP(=O)(O)OC[C@H]1O[C@@H](n2cnc3c(N)ncnc32)[C@H](O)[C@@H]1OP(=O)(O)O)[C@@H](O)C(=O)NCCC(=O)NCCSC(=O)Cc1ccccc1; assay: DTNB assay of released CoASH, 96-well; conditions: forward reaction, 2 mM ADP, 10 mM K2HPO4, 2 mM MgCl2, pH 7.0, 80°C
Text: as §1

[8] = substrate: CC(=O)SCCNC(=O)CCNC(=O)[C@H](O)C(C)(C)COP(=O)(O)OP(=O)(O)OC[C@H]1O[C@@H](n2cnc3c(N)ncnc32)[C@H](O)[C@@H]1OP(=O)(O)O; assay: DTNB assay of released CoASH, 96-well; conditions: forward reaction, 2 mM ADP, 10 mM K2HPO4, 2 mM MgCl2, pH 7.0, 80°C; remark: listed apart in the source
Text: DTNB assay of released CoASH, 96-well on ACS4-A

B1: ACS3-A (Pyrococcus furiosus DSM 3638) (protein)
chain 1: MTVNLDFLFYPKSVAVIGASATPGKVGNAIMKSLAANFNGKVYPVNVKEGEIEINGKKFKVYRSIKEIPDEVDVAVIAVPAKFVPDVIDECGEKGVKGAIVISAGFKEAGRADLEEELVKRARKWGIRVVGPNCLGVTNLENGFDCNFNPPERQARPKFGPIAFMSQSGAFGAAILDWAARHEVGMSKFISLGNMADLDESDFMLYLKDDPKTKVITAYIEGVKDGRKFFNAAKETTKVKPVIILKAGRTEAGAKAAASHTGSLAGSYKIYQAAFEQTGVLAAKSMRQLFNYAKALAMQSPAKGDRVAIVTNGGGAGVMMSDGLLEAGLKLAEFTEETKEKFRKAIEEGLLPEHMSYKNPVDVIGDAPSSRYETAIRYVLEDPNVDIVVVIALFQSPALDEGIVDVMERVKEYGKPIVFVAPGGEYPERMARKIEEKGIPVFETVEDGVDAVYALIKYGKYLAEL
chain 2: MKGEALKIIEEVLAQGRTAMVEYEAKQVLKAYGLPVPEEKLAKTLDEALKYAEEIGYPVAMKLMSPQILHKSDAKVVMLNIKSPEELKKKWEEIHENARKYRPDAEIFGVLIAPMLKPGREVIIGVTEDPQFGHAIMFGLGGIFVEILKDVTFRIIPITEKDARKMITEIKAYPILAGARGEEPADIEAIVDMLLKVSKLVDDLKDYIKEMDLNPVFVYRKGEGAVVVDARIILKG
notes: alpha (pET24a) and beta-A (pET21b) coexpressed in E. coli BL21(DE3) pRIL, untagged, heat-treated and desalted; alpha2beta2 ~140 kDa; Printed PF1837 primers identical to PF1838 (probable misprint)
- Km [1]: 474 ± 165 µM
- kcat/Km [1]: 12000 M⁻¹ s⁻¹

B2: ACS1-A (Pyrococcus furiosus DSM 3638) (protein)
chain 1: MSLEALFNPKSVAVIGASAKPGKIGYAIMKNLIEYGYEGKIYPVNIKGGEIEINGRKFKVYKSVLEIPDEVDMAVIVVPAKFVPQVLEECGQKGVKVVPIISSGFGELGEEGKKVEQQLVETARKYGMRILGPNIFGVVYTPAKLNATFGPTDVLPGPLALISQSGALGIALMGWTILEKIGLSAVVSVGNKADIDDADLLEFFKDDENTRAILIYMEGVKDGRRFMEVAKEVSKKKPIIVIKAGRSERGAKAAASHTGSLAGSDKVYSAAFKQSGVLRAYTIGEAFDWARALSNLPEPQGDNVVIITNGGGIGVMATDAAEEEGLHLYDNLEELKIFANHMPPFGSYKNPVDLTGMADGKSYEGAIRDALAHPEMHSIAVLYCQTAVLDPRELAEIVIREYNESGRKKPLVVAIVGGIEAKEAIDMLNENGIPAYPEPERAIKALSALYKWSKWKAKHKEK
chain 2: MKGEALKIIEEVLAQGRTAMVEYEAKQVLKAYGLPVPEEKLAKTLDEALKYAEEIGYPVAMKLMSPQILHKSDAKVVMLNIKSPEELKKKWEEIHENARKYRPDAEIFGVLIAPMLKPGREVIIGVTEDPQFGHAIMFGLGGIFVEILKDVTFRIIPITEKDARKMITEIKAYPILAGARGEEPADIEAIVDMLLKVSKLVDDLKDYIKEMDLNPVFVYRKGEGAVVVDARIILKG
notes: alpha (pET24a) and beta-A (pET21b) coexpressed in E. coli BL21(DE3) pRIL, untagged (stop codons in primers), heat-treated and desalted; alpha2beta2 ~140 kDa; Printed PF1837 primers are identical to those of PF1838 (probable misprint)
- Km [2]: 132 ± 19 µM
- kcat/Km [2]: 140000 M⁻¹ s⁻¹
- Km [3]: 223 ± 58 µM
- kcat/Km [3]: 10000 M⁻¹ s⁻¹
- Km [4]: 137 ± 91 µM
- kcat/Km [4]: 140000 M⁻¹ s⁻¹

B3: ACS2-A (Pyrococcus furiosus DSM 3638) (protein)
chain 1: MLDYFFNPRGIAVIGASNDPKKLGYEVFKNLKEYQGGKVYPVNVREEEVQGVKAYKSVKEIPGEVDLAIIVVPKKFVKQTLIECGEKGVKGVVIITAGFGETGEEGKREEKELVEIAHKYGMRIIGPNCVGIMNTHANLNATFITVAKKGNVAFISQSGALGAGIVYKTIKEDIGFSKFISVGNMADLDFADLMEYLADTQEDKAIALYIEGIKDGRRFIEVAKKVTKKKPVIALKAGKSESGSRAAASHTGSLAGSWKIYEAAFKQSGVLVANTIDEMLSMARAFTQPLPKGNRVAIMTNAGGPGVLTADEIDKRGLKLANLEEKTIEELRSFLPPMAAVKNPVDMIASARGEDYYRTAKLLLQDPNVDILIAICVVPTFAGMTPTEHAEGIIRAVKEVNNGKPVLALFMAGYVSEKAKELLEKNGIPTYERPEDVAAAAYALVQQAKNVGGGVNG
chain 2: MKGEALKIIEEVLAQGRTAMVEYEAKQVLKAYGLPVPEEKLAKTLDEALKYAEEIGYPVAMKLMSPQILHKSDAKVVMLNIKSPEELKKKWEEIHENARKYRPDAEIFGVLIAPMLKPGREVIIGVTEDPQFGHAIMFGLGGIFVEILKDVTFRIIPITEKDARKMITEIKAYPILAGARGEEPADIEAIVDMLLKVSKLVDDLKDYIKEMDLNPVFVYRKGEGAVVVDARIILKG
notes: as for B1
- Km [5]: 466 ± 119 µM
- kcat/Km [5]: 109000 M⁻¹ s⁻¹
- Km [6]: 350 ± 2 µM
- kcat/Km [6]: 114000 M⁻¹ s⁻¹
- Km [7]: 3320 ± 1320 µM
- kcat/Km [7]: 150000 M⁻¹ s⁻¹

B4: ACS4-A (Pyrococcus furiosus DSM 3638) (protein)
chain 1: MRYFFYPNSVAIFGSFREGAIAREILRNIVEGGFEGKIIPVNPKGGEVEVAGKKFNIKEKLDEPVDVSIIAIPAKLVPELIRGLKGLTKGAVVISAGFSEVGNVELEKELIKAAKEAGIRVIGPNCAGIFGVHAKFYGSFEVRVNPGGLALISQSGAFGGAALAMGNEEGIGFSAFVSYGNAADLDESDFLRFFADDENTRVIGLYIEGVKDGRKFLDALRYAASKKPVIILKAGKSRAGARAAASHTGSLAGSYEIYRAAFRQAGAIEVEEMEELFDAAKAFEMYERAGRRVAIITNSGGPGVLATDKLERLGLEIAKLTEETVEELRSFLPPQCSVKNPVDLIADADYERYKRAIEVVCRDENVDAILVICVPPIFIPSEEIARAVVEANCDKPIIVNFMAGELVREGIKILESKKIKNFPTPERAAKALYWLSLRSSSE
chain 2: MKGEALKIIEEVLAQGRTAMVEYEAKQVLKAYGLPVPEEKLAKTLDEALKYAEEIGYPVAMKLMSPQILHKSDAKVVMLNIKSPEELKKKWEEIHENARKYRPDAEIFGVLIAPMLKPGREVIIGVTEDPQFGHAIMFGLGGIFVEILKDVTFRIIPITEKDARKMITEIKAYPILAGARGEEPADIEAIVDMLLKVSKLVDDLKDYIKEMDLNPVFVYRKGEGAVVVDARIILKG
notes: as for B1
- Km [8]: 242 ± 46 µM
- kcat/Km [8]: 119000 M⁻¹ s⁻¹
